According to patent US20090305961:

Tested on: plasminogen

**Q.** “human low molecular weight urokinase-plasminogen activator (LMW-u-PA)” was tested. Which “amidolytic activity, chromogenic substrates Chromozyme U and S-2251, absorbance at 405 nm” value did it give?
**A.** Cells transfected with pLMW-u-PA showed much higher levels of u-PA activity compared to cells transfected with pSPUC1A
